{"source": "paper doi:10.1101/2022.08.24.505195", "about": "(bioRxiv, 2022)", "proteins": {"B1": {"name": "EBOV VP40 with 6xHis tag (pET46-VP40-6xHis), recombinant dimer (natural protein)", "chain": "MRRVILPTAPPEYMEAIYPVRSNSTIARGGNSNTGFLTPESVNGDTPSNPLRPIADDTIDHASHTPGSVSSAFILEAMVNVISGPKVLMKQIPIWLPLGVADQKTYSFDSTTAAIMLASYTITHFGKATNPLVRVNRLGPGIPDHPLRLLRIGNQAFLQEFVLPPVQLPQYFTFDLTALKLITQPLPAATWTDDTPTGSNGALRPGISFHPKLRPILLPNKSGKKGNSADLTSPEKIQAIMTSLQDFKIVPIDPTKNIMGIEVPETLVHKLTGKKVTSKNGQPIIPVLLPKYIGLDPVAPGDLTMVITQDCDTCHSPASLPAVIEK"}}, "target": "the molecule itself", "assay": "SEC", "data": [{"protein": "B1", "values": [{"measurement": "stoichiometry N", "result": 2}]}]}
